In patent US20240084039A1:

Key:
[1] = target: pre-existing anti-drug antibodies (ADA) present in human sera; assay: ELISA pre-existing ADA binding assay, confirmatory setup, test molecule coated, 20 human sera
[2] = target: pre-existing anti-drug antibodies (ADA) present in human sera; assay: ELISA pre-existing ADA binding assay, confirmatory setup, test molecule coated, 20 human sera (second row for PRO1922)
[3] = target: pre-existing anti-drug antibodies (ADA) present in human sera; assay: ELISA pre-existing ADA binding assay, confirmatory setup, test molecule coated, 20 human sera (second row for PRO2230)
[4] = target: pre-existing anti-drug antibodies (ADA) present in human sera; assay: ELISA pre-existing ADA binding assay, confirmatory setup, test molecule coated, 40 human sera

% positives of total tested serum samples [1] [%] | No of positive serum samples above 30% CCP (serum samples) [1] | % positives of total tested serum samples [4] [%] | No of positive serum samples above 31.56% CCP (serum samples) [4] | Binder | other results
– | – | 7.5 | 3 | PRO2762 (protein) DIQMTQSPASLSASVGDRVTITCQASQSIGTYLAWYQQKPGKPPKLLIYRAFILASGVPSRFSGSGSGTDFTLTISSLQPEDFATYYCQSNFYSDSTTIGPNAFGCGTKVTVLGGGGGSEVQLVESGGGRVQPGGSLRLSCAASGFSFSANYYPCWVRQAPGKGLEWIGCIYGGSSDITYDAQWTKGRFTISRDNSKNTVYLQMNSLRAEDTATYYCARSAWYSGWGGDLWGQGTQVTVSSGGGGSGGGGSGGGGSGGGGSIQMTQSPSSLSASVGDRVTITCQASQSISNRLAWYQQKPGKAPKLLIYSASTLASGVPSRFSGSGSGTDFTLTISSLQPEDFATYYCQSTYYGNDGNAFGTGTKVTVLGGGGGSEVQLVESGGGRVQPGGSLRLSCAASGFSFNSDYWIYWVRQAPGKCLEWIASIYGGSSGNTQYASWAQGRFTISRDNSKNTVYLQMNSLRAEDTATYFCARGYVDYGGATDLWGQGTQVTVSSGGGGSGGGGSIQMTQSPSSLSASVGDRVTITCQSSESVYSNNQLSWYQQKPGQPPKLLIYDASDLASGVPSRFSGSGSGTDFTLTISSLQPEDFATYYCAGGFSSSSDTAFGGGTKLTVLGGGGGSGGGGSGGGGSGGGGSEVQLVESGGGRVQPGGSLRLSCAASGFSLSSNAMGWVRQAPGKGLEYIGIISVGGFTYYASWAKGRFTISRDNSKNTVYLQMNSLRAEDTATYFCARDRHGGDSSGAFYLWGQGTQVTVSS | –
– | – | 2.5 | 1 | PRO2763 (protein) DIQMTQSPASLSASVGDRVTITCQASQSIGTYLAWYQQKPGKPPKLLIYRAFILASGVPSRFSGSGSGTDFTLTISSLQPEDFATYYCQSNFYSDSTTIGPNAFGCGTKVTVLGGGGGSEVQLVESGGGRVQPGGSLRLSCAASGFSFSANYYPCWVRQAPGKGLEWIGCIYGGSSDITYDAQWTKGRFTISRDNSKNTVYLQMNSLRAEDTATYYCARSAWYSGWGGDLWGQGTQVTVSSGGGGSGGGGSGGGGSGGGGSIQMTQSPSSLSASVGDRVTITCQASQSISNRLAWYQQKPGKAPKLLIYSASTLASGVPSRFSGSGSGTDFTLTISSLQPEDFATYYCQSTYYGNDGNAFGTGTKVTVLGGGGGSEVQLVESGGGRVQPGGSLRLSCAASGFSFNSDYWIYWVRQAPGKCLEWIASIYGGSSGNTQYASWAQGRFTISRDNSKNTVYLQMNSLRAEDTATYFCARGYVDYGGATDLWGQGTQVTVSSGGGGSGGGGSIQMTQSPSSLSASVGDRVTITCQSSESVYSNNQLSWYQQKPGQPPKLLIYDASDLASGVPSRFSGSGSGTDFTLTISSLQPEDFATYYCAGGFSSSSDTAFGCGTKLTVLGGGGGSGGGGSGGGGSGGGGSEVQLVESGGGRVQPGGSLRLSCAASGFSLSSNAMGWVRQAPGKCLEYIGIISVGGFTYYASWAKGRFTISRDNSKNTVYLQMNSLRAEDTATYFCARDRHGGDSSGAFYLWGQGTQVTVSS | –
– | – | 2.5 | 1 | PRO2764 (protein) DIQMTQSPASLSASVGDRVTITCQASQSIGTYLAWYQQKPGKPPKLLIYRAFILASGVPSRFSGSGSGTDFTLTISSLQPEDFATYYCQSNFYSDSTTIGPNAFGCGTKVTVLGGGGGSEVQLVESGGGRVQPGGSLRLSCAASGFSFSANYYPCWVRQAPGKGLEWIGCIYGGSSDITYDANWTKGRFTISRDNSKNTVYLQMNSLRAEDTATYYCARSAWYSGWGGDLWGQGTQVTVSSGGGGSGGGGSGGGGSGGGGSIQMTQSPSSLSASVGDRVTITCQASQSISNRLAWYQQKPGKAPKLLIYSASTLASGVPSRFSGSGSGTDFTLTISSLQPEDFATYYCQSTYYGNDGNAFGTGTKVTVLGGGGGSEVQLVESGGGRVQPGGSLRLSCAASGFSFNSDYWIYWVRQAPGKCLEWIASIYGGSSGNTQYASWAQGRFTISRDNSKNTVYLQMNSLRAEDTATYFCARGYVDYGGATDLWGQGTQVTVSSGGGGSGGGGSIQMTQSPSSLSASVGDRVTITCQSSESVYSNNQLSWYQQKPGQPPKLLIYDASDLASGVPSRFSGSGSGTDFTLTISSLQPEDFATYYCAGGFSSSSDTAFGGGTKLTVLGGGGGSGGGGSGGGGSGGGGSEVQLVESGGGRVQPGGSLRLSCAASGFSLSSNAMGWVRQAPGKGLEYIGIISVGGFTYYASWAKGRFTISRDNSKNTVYLQMNSLRAEDTATYFCARDRHGGDSSGAFYLWGQGTQVTVSS | –
– | – | 2.5 | 1 | PRO2765 (protein) DIQMTQSPASLSASVGDRVTITCQASQSIGTYLAWYQQKPGKPPKLLIYRAFILASGVPSRFSGSGSGTDFTLTISSLQPEDFATYYCQSNFYSDSTTIGPNAFGCGTKVTVLGGGGGSEVQLVESGGGRVQPGGSLRLSCAASGFSFSANYYPCWVRQAPGKGLEWIGCIYGGSSDITYDANWTKGRFTISRDNSKNTVYLQMNSLRAEDTATYYCARSAWYSGWGGDLWGQGTQVTVSSGGGGSGGGGSGGGGSGGGGSIQMTQSPSSLSASVGDRVTITCQASQSISNRLAWYQQKPGKAPKLLIYSASTLASGVPSRFSGSGSGTDFTLTISSLQPEDFATYYCQSTYYGNDGNAFGTGTKVTVLGGGGGSEVQLVESGGGRVQPGGSLRLSCAASGFSFNSDYWIYWVRQAPGKCLEWIASIYGGSSGNTQYASWAQGRFTISRDNSKNTVYLQMNSLRAEDTATYFCARGYVDYGGATDLWGQGTQVTVSSGGGGSGGGGSIQMTQSPSSLSASVGDRVTITCQSSESVYSNNQLSWYQQKPGQPPKLLIYDASDLASGVPSRFSGSGSGTDFTLTISSLQPEDFATYYCAGGFSSSSDTAFGCGTKLTVLGGGGGSGGGGSGGGGSGGGGSEVQLVESGGGRVQPGGSLRLSCAASGFSLSSNAMGWVRQAPGKCLEYIGIISVGGFTYYASWAKGRFTISRDNSKNTVYLQMNSLRAEDTATYFCARDRHGGDSSGAFYLWGQGTQVTVSS | –

The remaining lines, values behind:

Binder | % positives of total tested serum samples [1] [%] | No of positive serum samples above 30% CCP (serum samples) [1] | % positives of total tested serum samples [4] [%] | No of positive serum samples above 31.56% CCP (serum samples) [4] | other results
PRO1922 (scFv) scFv: DIQMTQSPSSLSASVGDRVTITCQASESIYSSLAWYQQKPGKAPKLLIYLASTLASGVPSRFSGSGSGTDFTLTISSLQPEDFATYYCQSTDYTTSTHRNSFGTGTKVTVLGGGGGSGGGGSGGGGSGGGGSEVQLVESGGGLVQPGGSLRLSCAASGFSFSTTYYMCWVRQAPGKGLEWIGCTNTASSVRTYYATWAKGRFTISRDNSKNTVYLQMNSLRAEDTAVYYCARDMGFADYALNLWGQGTLVTVSS | 80 | 16 | – | – | % positives of total tested serum samples [2]: 80%; No of positive serum samples above 30% CCP (serum samples) [2]: 16
PRO2230 (scFv) scFv: DIQMTQSPASLSASVGDRVTITCQASQSIGTYLAWYQQKPGKPPKLLIYRAFILASGVPSRFSGSGSGTDFTLTISSLQPEDFATYYCQSNFYSDSTTIGPNAFGTGTKVTVLGGGGGSGGGGSGGGGSGGGGSEVQLVESGGGLVQPGGSLRLSCAASGFSFNSDYWIYWVRQAPGKGLEWIASIYGGSSGNTQYASWAQGRFTISRDNSKNTVYLQMNSLRAEDTAVYFCARGYVDYGGATDLWGQGTLVTVSS | 90 | 18 | – | – | % positives of total tested serum samples [3]: 76%; No of positive serum samples above 30% CCP (serum samples) [3]: 15
